# B1: IL-1 receptor: soluble IL-1 receptor (Immunex Corp.; Seattle, Wash.), stock concentration 10 mg/ml (protein, UniProt P14778 18-336, looked up)
# extracellular domain: LEADKCKEREEKIILVSSANEIDVRPCPLNPNEHKGTITWYKDDSKTPVSTEQASRIHQHKEKLWFVPAKVEDSGHYYCVVRNSSYCLRIKISAKFVENEPNLCYNAQAIFKQKLPVAGDGGLVCPYMEFFKNENNELPKLQWYKDCKPLLLDNIHFSGVKDRLIVMNVAEKHRGNYTCHASYTYLGKQYPITRVIEFITLEENKPTRPVIVSPANETMEVDLGSQIQLICNVTGQLSDIAYWKWNGSVIDEDDPVLGEDYYSVENPANKRRSTLITVLNISEIESRFYKHPFTCFAKNTHGIDAAYIQLIYPVTNFQK
# modifications: extracellular domain
# notes: soluble IL-1 receptor (Immunex Corp; Seattle, Wash.), stock concentration 10 mg/ml
# Tests used:
# [1] = test system: cutaneous allergic reactions following the intradermal administration of antigen; test: LPR skin test, intradermal challenge with dust mite antigen; assay type: in vivo, human; details: IL-1 receptor 1.65 mg/ml injected with dust mite antigen, versus allergen without receptor
# Procedure: The LPR skin test is performed by interadermally injecting subjects on the forearm with test solution. The test solution contains the challenging antigen. Controls receive test solution without challenging antigen. The injection site is thereafter examined at intervals up to 96 hours. The diameters of the reactions are measured in two perpendicular directions and the characteristics are noted at different times.
# The LPR gradually subsides over a 24 hour period. At the peak, the injection site is characterized by erythema, warmth, edema, pruritus and/or tenderness. The LPR is more extensive in area and produces greater discomfort then the early phase reaction.
# Dust mite antigen is used (D. pteronyssinus; Allergy Laboratories of Ohio; 30,000 AU/ml). The soluble IL-1 receptor (Immunex Corp.; Seattle, Wash.) stock concentration is 10 mg/ml. Eight test solutions are prepared for intradermal injections (0.01 ml each) using TB syringes and disposable needles. Four intradermal test sites are used on each forearm.
# Two test solutions are controls. […] Three concentrations of the antigen are evaluated (final concentrations: 1:500,000, 1:200,000, and 1:100,000).
# The area of the wheal reaction is marked on the skin with a ball-point pen. […] The wheal reactions are then calculated by counting the squares within the pen-marked area.
# [2] = test system: conjunctival allergic response to ryegrass allergen; test: conjunctival provocation test (CPT) with ryegrass allergen; assay type: in vivo, human
# Procedure: Ten ryegrass-sensitive patients with hay fever conjunctivitis and ten nonallergic subjects without ocular disease are challenged by weekly topical administration of ryegrass allergen for 4 weeks with 10 μl of four different allergen doses (10,000, 32,000, 100,000, and 320,000 BU/ml of ryegrass allergen) (Pharmalgen, Pharmacia Diagnostics AB, Uppsala, Sweden). Albumin diluent (Pharmacia), is used to dilute the allergen. Five of the patients and five of the nonallergic subjects are given allergen premixed with IL-1 receptor. The other five patients and subjects are given allergen without IL-1receptor. Importantly, the allergic patients and control subjects have no clinical symptoms before ocular provocation. […]
# The challenge solution is administered to the contralateral eye in both patients and control subjects. Clinical conjunctival evaluation with tear-fluid cytology is assessed in both eyes before administration of allergen or buffer 20 minutes, one hour, and six hours after challenge. In both the allergic patients and control subjects, the following ocular symptoms, both subjective and objective, are evaluated by a physician: hyperemia, edema, tearing, and itching. Each symptom is scored from 0 to 4+ and graded as follows: 0—absent; 1+—mild; 2+—moderate; 3+—severe; and 4+—very severe. […]
# [3] = test system: early and late phase response in nasal tissue of patients with seasonal allergic rhinitis; test: nasal challenge with ragweed or mixed-grass pollen antigen; assay type: in vivo, human; details: prechallenge nasal lavages with IL-1 receptor versus buffer, 1000 PNU antigen, late and rechallenge reactions
# Excerpt: Sixteen patients with seasonal allergic rhinitis due to grass or ragweed pollens are selected.
# Ragweed and mixed-grass pollen extracts (timothy, orchard, June and meadow grass in a ratio of 3:2:3:2) are purchased from Greer Laboratories (Lenoir, N.C.); lactated Ringer's solution and oxymetazoline hydrochloride (Afrin, Schering, Kenilworth, N.J.) are purchased from the hospital pharmacy.
# At the time of the challenge, oxymetazoline hydrochloride is sprayed into the nose (two sprays per nostril) of all patients to prevent mucosal congestion, which would interfere with the collection of nasal secretions.
# Eight of the sixteen patients receive four prechallenge nasal lavages with IL-1 receptor diluted in buffer; the remaining […] receive lavages with buffer only. Thereafter, challenges with 1000 PNU of antigen are undertaken.
# The patients maintain a symptom score sheet during the challenge procedure. In addition to the number of sneezes, a six-point scale from 0 to 5 (with 0 equal to no symptoms and 5 equal to severe symptoms) is used to assess nasal secretion, blockage, and itching. The degree of blockage is, of course, underestimated on those score sheets because of the pretreatment with oxymetazoline hydrochloride. The presence or absence of symptoms correlates with the presence or absence of mediators during the late reaction.
# [4] = test system: late phase reaction in lung tissue of patients with allergic bronchial asthma; test: allergen inhalation (dust mite extract) with bronchoalveolar lavage; assay type: in vivo, human; details: allergen premixed with IL-1 receptor versus allergen alone
# Procedure: In this example, twenty patients with documented allergic bronchial asthma participate. Allergen inhalation is performed by inhaling dust mite extract (see Example 1, above) at 15 minute intervals using a Wiesbadnener Doppelspray (8 L/min air flow, nebulizer output approximately 0.2 ml/min). Ten patients received the allergen premixed with IL-1 receptor; the other ten patients received the allergen alone.
# Eosinophil granule major basic protein levels are markedly elevated in the lavage fluid of these asthmatic patients. Peripheral blood eosinophil counts decrease during late phase responses to antigen challenge at the time eosinophil levels in the pulmonary tissues increases, presumably because of margination and emigration in the lungs.
# alloreactivity in vivo = details: systemic administration; cited from earlier work
# [5] = test system: experimental autoimmune encephalomyelitis; details: interperitoneal administration; cited from earlier work
molecule,measurement,setting,value
B1,reduction of wheal at peak of LPR,[1]; LPR peak between eight and 13 hours,at least 50%
same,"wheal area, early phase",[1]; twenty minutes post injection,reduced
same,immediate hypersensitivity ocular reaction (clinical response),"[2]; allergic subjects, allergen premixed with IL-1 receptor versus allergen without receptor, all allergen doses",significantly reduced response
same,increase in eosinophils in the tear fluid,"[2]; highest allergen dose, 6 hours after provocation (late phase), allergic patients",not seen
same,nasal symptoms,[3],inhibits
same,release of histamine and other inflammatory mediators,[3],inhibits
same,"activation of mast cells, infiltration of the tissues by eosinophils and other inflammatory cells, tissue damage and dysfunction (histologic data)",[4],markedly suppressed
same,eosinophil emigration in the lungs (bronchoalveolar lavage),[4],suppression
same,survival of heart allografts,alloreactivity in vivo,prolonged
same,severity of the disease,[5],reduced

# — patent US20050059589A1, “Methods and compositions for treating allergic reactions” (priority 1991, published 2005)
